Results published in patent publication US20240041976A1, “COMPOSITION AND USE” (priority 2020, published 2024).
Read-outs that look alike come from different tables or passages of the source.

Tests used:
Type in all cases: cell-based, Staphylococcus aureus
MRSA USA-300 = experiment: AAMP assay and checkerboard synergy; details: MRSA USA-300
Protocol: (§1) Antimicrobial activity was measured using the AAMP assay (Wiegand et al., 2008, Nat. Protoc., Vol. 3(2), p 163-175).
(§2) Synergy testing was done with a microtiter plate checkerboard assay as previously described (Orhan et al., 2005, J. Clin. Microbiol., Vol. 43(1), p 140-143). Briefly, equal amounts of antimicrobial A were applied on microtiter plate 1 in wells A1-H1 and then diluted two-fold to wells 2-12. Similarly, equal amounts of antimicrobial B were applied on microtiter plate 2 in wells A1-A12 and diluted two-fold in wells B-H. Volumes of 50 μl of antimicrobial A from each well of microtiter plate 1 were transferred into microtiter plate 3, except for wells H1-H12. Similarly, the same volumes were transferred from microtiter plate 2 into plate 3, except for wells A1-A8. A 100 μl volume of 25 times diluted ON bacterial culture of MRSA was transferred into each well of plate 3. A 50 μl volume of pure broth was added into each well in lines H1-H12 and A1-A8 which were used to estimate MIC values of pure substances (blank).
(§3) Three-component synergy was assessed by mixing the three components (100 μg of PenG, 50 μg of GarKS and 2.5 μg of MP1) into one well of a microtiter plate, compared with activity of individual antimicrobials on the same plate. The fractional inhibition concentration (FIC) which was used to define synergy was calculated as set forth in Example 1.

MRSA ATCC 33591-lux = experiment: AAMP assay and checkerboard synergy; details: MRSA ATCC 33591-lux
Protocol: as §1, §2, §3

MRSA 43484 = experiment: AAMP assay and checkerboard synergy; details: MRSA 43484
Protocol: as §1, §2, §3

S. aureus LMG3264 = experiment: AAMP assay (MIC), single components and formulation mixture
Protocol: as §1, §3

S. aureus LMG3255 = experiment: as above
Protocol: as §1, §3

S. aureus LMG3242 = experiment: as above
Protocol: as §1, §3

S. aureus LMG3271 = experiment: as above
Protocol: as §1, §3

MRSA = experiment: MIC of the mixture dissolved in 5% HPC
Protocol: as §1
We also tested hydroxypropyl cellulose (HPC) which is a more hydrophilic polymer and commonly used for topical and oral pharmaceutical preparations (Alvarez-Lorenzo et al., 1999, Int. J. Pharmaceutics, Vol. 180(1), p 91-103).

S. aureus USA 300 = experiment: Planktonic cell growth inhibition assay (MIC50, liquid culture)
Protocol: (§4) Growth inhibition assays were performed in 96-well microtiter plates as described previously (Chi and Holo, 2018, supra). Briefly, 135 μl of TSB were dispensed in each well of a microtiter plate (according to the number of bacterial strains tested) except in the wells of the first row. The antimicrobials were diluted in TSB to working concentrations in a final volume of 285 μl and dispensed in the wells of the first row. The working concentrations were 100 μg/μl for garvicin KS, 10 μg/μl for micrococcin P1 and 1 mg/ml for penicillin G. From the first row, 150 μl of the antimicrobials were then serially diluted (two-fold dilutions) in a sequential fashion until the last row of the plate. Finally, 15 μl of a fresh O/N culture of each strain were added in the appropriate wells to reach a final volume of 150 μl in each well. The plates were then incubated at 37° C. for 24 h. The growth inhibition was expressed as minimum inhibitory concentration (MIC50), which refers to the minimum concentration of the antimicrobial needed to reduce at least 50% of the microbial growth compared to the untreated control. The MIC50 was assessed by optical density readings at 600 nm (O.D.600).
(§5) Synergistic interactions between antimicrobials were determined using the fractional inhibition concentration (FIC). The FIC values were calculated as follows: the sum of the FIC =FICa+FICb+FICc, where the FICa means MIC of A in combination/MIC of A alone, FICb means MIC of B in combination/MIC of B, and FICc means MIC of C in combination/MIC of C alone. Effects were considered as synergistic if FIC was ≤0.5 for two components mixture and ≤0.75 for three components mixture.

S.a. 3255 = experiment: as above; details: for MIC50: individual component
Protocol: as §4, §5

S. aureus ATTC 33591 = experiment: as above
Protocol: as §4, §5

S. aureus ATTC 10832 = experiment: as above
Protocol: as §4, §5

S. aureus Newman = experiment: as above; details: for MIC50: individual component
Protocol: as §4, §5

S. aureus ATTC 29213 = experiment: as above
Protocol: as §4, §5

[1] = Staphylococcus aureus, 24 h, read-out: MIC, single antimicrobial
[2] = garvicin KS + micrococcin P1 + penicillin G
[3] = Staphylococcus aureus, read-out: MIC50

With `C/C=C(\NC(=O)c1csc(-c2csc(-c3ccc4c(n3)-c3csc(n3)[C@H]([C@@H](C)O)NC(=O)c3csc(n3)[C@H](C(C)C)NC(=O)c3csc(n3)/C(=C/C)NC(=O)[C@H]([C@@H](C)O)NC(=O)c3csc-4n3)n2)n1)C(=O)NC[C@@H](C)O` [MP1, micrococcin P1] the “MIC of the antimicrobial in comb. with GarKS” value (“MIC of the antimicrobial” for short) (MRSA USA-300) was 0.16 µg/mL, the MIC (MRSA USA-300; [1]) was 2.5 µg/mL and the “MIC of the antimicrobial” value (MRSA ATCC 33591-lux) was 0.16 µg/mL. The “MIC of the antimicrobial” value (MRSA 43484) was 0.16 µg/mL, the MIC (MRSA 43484; [1]) was 2.5 µg/mL and the MIC (S. aureus LMG3264; Staphylococcus aureus, LMG3264, 24 h, read-out: MIC, single component) was > 1.8 µg/mL. The MIC (S. aureus LMG3255; Staphylococcus aureus, LMG3255, 24 h, read-out: MIC, single component) was > 1.8 µg/mL, the MIC (S. aureus LMG3242; Staphylococcus aureus, LMG3242, 24 h, read-out: MIC, single component) was 0.4 µg/mL and the MIC (S. aureus LMG3271; Staphylococcus aureus, LMG3271, 24 h, read-out: MIC, single component) was > 1.8 µg/mL. The MIC (MRSA; Staphylococcus aureus, MRSA, read-out: final MIC of the component in the mixture in HPC) was 0.04 µg/mL, the MIC50 (S. aureus USA 300; Staphylococcus aureus, USA300, individual component, read-out: MIC50) was 0.63 µg/mL and the “MIC50 of the component in combination” value (S. aureus USA 300; garvicin KS + micrococcin P1) was 0.156 µg/mL. The “MIC50 of the component in combination” value (S. aureus USA 300; [2]) was 0.63 µg/mL, the MIC50 (S.a. 3255; [3]) was 10 µg/mL and the “MIC50 of the component in combination” value (S.a. 3255; garvicin KS + micrococcin P1) was 0.0013 mg/mL. For the same molecule, the “MIC50 of the component in combination” value (S.a. 3255; [2]) was <7.8e-05 mg/mL, the MIC50 (S. aureus ATTC 33591; Staphylococcus aureus, ATTC33591, individual component, read-out: MIC50) was > 10 µg/mL and the “MIC50 of the component in combination” value (S. aureus ATTC 33591; garvicin KS + micrococcin P1) was 1.3 µg/mL. For the same molecule, the “MIC50 of the component in combination” value (S. aureus ATTC 33591; [2]) was 1.3 µg/mL, the MIC50 (S. aureus ATTC 10832; Staphylococcus aureus, ATTC10832, individual component, read-out: MIC50) was 0.63 µg/mL and the “MIC50 of the component in combination” value (S. aureus ATTC 10832; garvicin KS + micrococcin P1) was 0.63 µg/mL. The “MIC50 of the component in combination” value (S. aureus ATTC 10832; [2]) was <0.078 µg/mL, the MIC50 (S. aureus Newman; [3]) was 0.313 µg/mL and the “MIC50 of the component in combination” value (S. aureus Newman; garvicin KS + micrococcin P1) was 0.313 µg/mL. The “MIC50 of the component in combination” value (S. aureus Newman; [2]) was <0.078 µg/mL, the MIC50 (S. aureus ATTC 29213; Staphylococcus aureus, ATTC29213, individual component, read-out: MIC50) was 2.5 µg/mL and the “MIC50 of the component in combination” value (S. aureus ATTC 29213; garvicin KS + micrococcin P1) was 1.3 µg/mL. The “MIC50 of the component in combination” value (S. aureus ATTC 29213; [2]) was 0.31 µg/mL.

B1: Garvicin KS: three-peptide leaderless bacteriocin (GarA, GarB, GarC; SEQ ID NO:6-8), peptides synthesized (peptide, listed as Lactococcus garvieae)
chain 1: MGAIIKAGAKIVGKGVLGGGASWLGWNVGEKIWK
chain 2: MGAIIKAGAKIIGKGLLGGAAGGATYGGLKKIFG
chain 3: MGAIIKAGAKIVGKGALTGGGVWLAEKLFGGK
For B1, the “MIC, single antimicrobial” value (MRSA USA-300) was 32 µg/mL, the “MIC, single antimicrobial” value (MRSA ATCC 33591-lux) was 32 µg/mL and the “MIC, single antimicrobial” value (MRSA 43484) was 32 µg/mL. For the same molecule, the “MIC, single component” value (S. aureus LMG3264; LMG3264) was 32 µg/mL, the “MIC, single component” value (S. aureus LMG3255; LMG3255) was 32 µg/mL and the “MIC, single component” value (S. aureus LMG3242; LMG3242) was 32 µg/mL. The “MIC, single component” value (S. aureus LMG3271; LMG3271) was 32 µg/mL, the “final MIC of the component in the mixture in HPC” value (MRSA) was 2 µg/mL and the “MIC50 of the component in combination” value (S. aureus USA 300; garvicin KS + micrococcin P1) was 1.56 µg/mL. The “MIC50 of the component in combination” value (S. aureus USA 300; [2]) was 6.3 µg/mL, the “MIC50 of the component in combination” value (S. aureus USA 300; garvicin KS + penicillin G) was 25 µg/mL and the MIC50 (S. aureus USA 300; individual component) was 25 µg/mL. The “MIC50 of the component in combination” value (S.a. 3255; garvicin KS + micrococcin P1) was 0.013 mg/mL, the “MIC50 of the component in combination” value (S.a. 3255; [2]) was <7.8 × 10^−4. mg/ml and the “MIC50 of the component in combination” value (S.a. 3255; garvicin KS + penicillin G) was <0.00078 mg/mL. The MIC50 (S.a. 3255) was 25 µg/mL, the “MIC50 of the component in combination” value (S. aureus ATTC 33591; garvicin KS + micrococcin P1) was 13 µg/mL and the “MIC50 of the component in combination” value (S. aureus ATTC 33591; [2]) was 13 µg/mL. The “MIC50 of the component in combination” value (S. aureus ATTC 33591; garvicin KS + penicillin G) was 50 µg/mL, the MIC50 (S. aureus ATTC 33591; individual component) was 50 µg/mL and the “MIC50 of the component in combination” value (S. aureus ATTC 10832; garvicin KS + micrococcin P1) was 6.3 µg/mL. For the same molecule, the “MIC50 of the component in combination” value (S. aureus ATTC 10832; [2]) was <0.78 µg/mL, the “MIC50 of the component in combination” value (S. aureus ATTC 10832; garvicin KS + penicillin G) was <0.78 µg/mL and the MIC50 (S. aureus ATTC 10832; individual component) was 25 µg/mL. For the same molecule, the “MIC50 of the component in combination” value (S. aureus Newman; garvicin KS + micrococcin P1) was 3.13 µg/mL, the “MIC50 of the component in combination” value (S. aureus Newman; [2]) was <0.78 µg/mL and the “MIC50 of the component in combination” value (S. aureus Newman; garvicin KS + penicillin G) was <0.78 µg/mL. For the same molecule, the MIC50 (S. aureus Newman) was 25 µg/mL, the “MIC50 of the component in combination” value (S. aureus ATTC 29213; garvicin KS + micrococcin P1) was 13 µg/mL and the “MIC50 of the component in combination” value (S. aureus ATTC 29213; [2]) was 3.1 µg/mL. The “MIC50 of the component in combination” value (S. aureus ATTC 29213; garvicin KS + penicillin G) was 13 µg/mL and the MIC50 (S. aureus ATTC 29213; individual component) was 25 µg/mL.
